Our source for the stoichiometry N values is paper PMC10267887.

Assay [1] deals with fibroblast growth factor 2 fused to GFP (FGF2-GFP), His-tagged (UniProt P09038). Kind of assay: dual(+1)-FCS (brightness analysis by fluorescence correlation spectroscopy); as a1; INITIAL state (t = 60-120 min), leaky, (leaky to leaky) GUVs.
Assay [2] has the same target. In words: dual(+1)-FCS (brightness analysis by fluorescence correlation spectroscopy); 200 nM FGF2-GFP on immobilised GUVs of plasma-membrane-like lipids with 2 mol % PI(4,5)P2, HEPES buffer (25 mM HEPES, 150 mM NaCl, pH 7.4); average oligomeric state per GUV; FINAL state (t >= 240 min), permeabilized (leaky) GUVs.
For assay [3] the target is unchanged. In words: dual(+1)-FCS (brightness analysis by fluorescence correlation spectroscopy); as a1; FINAL state (t >= 240 min), (leaky to leaky) GUVs only.

Several values for one entry are separate records, joined by “and”; a condition that tells them apart may be missing. Equal entries are not always repeated. Some results are limits rather than exact numbers.

With “fibroblast growth factor 2 fused to GFP (FGF2-GFP), His-tagged (from UniProt P09038 1-288) (natural protein)”, the stoichiometry N was 2 and 6 in assay [1]; 2 and 6 in assay [2]; < 10 m.u. and 4.21 m.u in assay [3].
